Experimental findings from patent publication US20120076796A1 (Ablynx, published 2012) are described below.

B1: 166-D4 (VHH)
VHH: EVQLVESGGGLVQAGGSLRLSCVASGRIFTNTAMGWYRQAPGKWRELVATIYSGGSTKYIDSVKGRFIISRDNTRNTVHLQMNSLKPEDTAVYYCNTVGAGSYWGQGAQVTVSS
notes: Nanobody
B2: 166-E12 (VHH)
VHH: KVQLVESGGGLVQAGGSLRLSCAASGFTFGSTTIGWFRQAPGKEREGVSCISTGDGSTYYAESVKGRFTISSDNAKNTVYLQMNSLKPEDTAVYYCALDQAPMWSSWSAPYEYDYWGQGTQVTVSS
notes: Nanobody
B3: 163-E7 (VHH)
VHH: EVQLVESGGGLVQPGGSLRLSCAASGFTFSDYSMSWVRQAPGKGLEWVSAISGGGEVTTYADSVKGRFTISRDNAKNTLYLQMSSLKPEDTALYYCAEHLNFYSVSVRSSPTSQGTQVTVSS
notes: Nanobody
B4: 162-H10 (VHH)
VHH: EVQLVESGGGLVQPGGSLRLSCAASGFTLDDYAVGWFRQAPGKEREGVSCIGSSYGSTYYADSVKGRFTISRDNAKNTVYLQMNSLKPEDTAVYYCAVQGYSGGYYYTCEDSADFGFWGQGTQVTVSS
notes: Nanobody
B5: 162-F11 (VHH)
VHH: EVQLVESGGGLVQAGGSLRLSCAASGFTFDDYAIGWFRQAPGKEREGVACISSSDGSTYYADSVKGRFTISSDNAKNTVYLQMNSLKPEDTAVYSCSAGSVAGCIPYYWGQGTQVTVSS
notes: Nanobody
B6: 163-H8 (VHH)
VHH: EVQLVESGGGLVQPGGSLRLSCAASGFTFGSNGMRWVRQAPGKGPEWVSSINSDGTSTYYAESVKGRFTISRDNAKNTLYLQMHSLKPEDTAVYYCTTTENPNPRGPGTQVTVSS
notes: Nanobody
B7: 163-G8 (VHH)
VHH: EVQLVESGGGLVQPGGSLRLSCAASGFTFGSNGMRWVRQAPGKGPEWVSSINSDGTSAFYAESVKGRFTISRDNAKNTLYLQMNSLKPEDTAVYYCTTTMNPNPRGQGTQVTVSS
notes: Nanobody
B8: 163-E9 (VHH)
VHH: EVQLVESGGGLVQPGDSLRLSCAASGFTFGSNGMRWVRQAPGKGPEWVSSINSDGTSTYYADSVKGRFTISRDNAKNTLCLQMNSLKPEDTAVYYCTTTEDPYPRGQGTQVTVSS
notes: Nanobody; also called Nanobody 163E9; Tie-2 Nanobody 163E9
B9: 168-G3 (VHH)
VHH: EVQLVESGGGLVQPGGSLRLSCAASGSTLDYYAIGWYRQAPGKEREWVSCISSSNYGITTYADSVKGRFTISRDNAKNTVYLQMNSLKPEDTAIYYCATNTRRKYGRLCDLNADYWGQGTQVTVSS
notes: Nanobody
B10: 169-F11 (VHH)
VHH: EVQLVESGGGLVQPGGSLRLSCATSGFTFSTSWMYWLRQAPGKGLEWVSTITPRGLTDYTNSVKGRFTVSRDNAKNTLYLQMNSLKSEDTAVYYCTKDKNGPPMGQGTQVTVSS
notes: Nanobody
B11: 169-C8 (VHH)
VHH: EVQLVESGGGLVQPGGSLRLSCATSGFTFSTSWMYWLRQAPGKGLEWVSTITPRGLTDYTDSVKGRFTISRDSAKNTLYLQMNSLKSEDTADYYCTRDKNGPPMGQGTQVTVSS
notes: Nanobody
B12: 169-A10 (VHH)
VHH: EVQLVESGGGLVQPGGSLRLSCATSGFTFSPSWMYWLRQAPGKGLEWVSTITPRGLTEYANSVKGRFTISKDNAKNTLYLQMNSLKSEDTAVYYCTRDKNGPPMGQGTQVTVSS
notes: Nanobody
B13: 169-A12 (VHH)
VHH: EVQLVESGGGLVQPGGSLRLSCVASGSIRSIIHMGWYRQAPGNERDLVAVIIDSRTTKYSESVKGRFTISRDNAKNTVYLQMNSLKPEDTAVYYCNALALGTDQSSTFDSWGQGTQVTVSS
notes: Nanobody
B14: 169-C12 (VHH)
VHH: EVQLVESGGGLVQPGGSLRLSCAASGSIRSIIHMGWYRQTPGNERDMVAVIIDSRTTKYAESVKGRFTISRDNAKNTVYLQMNSLKPEDTAVYYCNALALGTDQSSTFDSWGQGTQVTVSS
notes: Nanobody
B15: 168-A3 (VHH)
VHH: EVQLVESGGGLVQPGGSLRLSCAASGFTLSGNWMYWLRQAPGKGLEWISTITPRGLTAYADSVKGRFTISRDIAENTLYLQMNSLKSGDTAVYYCARDKTGERRGQGTQVTVSS
notes: Nanobody
B16: 168-E5 (VHH)
VHH: EVQLVESGGGLVQPGGSLRLSCAASGFTLSSNWMYWLRQAPGKGLEWISTITPRDLTAYADSVKGRFTISRDNAENTLYLQMNSLKSEDTAVYYCAKDKAGERRGQGTQVTVSS
notes: Nanobody
B17: 169-B12 (VHH)
VHH: EVQLVESGGGLVQAGGSLRLSCAASGSIFSINAMGWYRQAPGNQRDLVAAITSGDSTKYADFVKGRFTISRDNAKNTVYLQMNSLKPEDTAVYYCAAELLGKWYWGQGTQVTVSS
notes: Nanobody
B18: 169-E12 (VHH)
VHH: EVQLVESGGGLVQAGGSLRLSCAASGSIFSINTMGWYRQAPGNQRDLVAAITNGGSTKYVDSVKGRFTISRDNAKNTVYLQMNSLKPEDTAVYYCAAESLGRWGWGQGTQVTVSS
notes: Nanobody

T2 sequence (Q02763 23-745, change not shown): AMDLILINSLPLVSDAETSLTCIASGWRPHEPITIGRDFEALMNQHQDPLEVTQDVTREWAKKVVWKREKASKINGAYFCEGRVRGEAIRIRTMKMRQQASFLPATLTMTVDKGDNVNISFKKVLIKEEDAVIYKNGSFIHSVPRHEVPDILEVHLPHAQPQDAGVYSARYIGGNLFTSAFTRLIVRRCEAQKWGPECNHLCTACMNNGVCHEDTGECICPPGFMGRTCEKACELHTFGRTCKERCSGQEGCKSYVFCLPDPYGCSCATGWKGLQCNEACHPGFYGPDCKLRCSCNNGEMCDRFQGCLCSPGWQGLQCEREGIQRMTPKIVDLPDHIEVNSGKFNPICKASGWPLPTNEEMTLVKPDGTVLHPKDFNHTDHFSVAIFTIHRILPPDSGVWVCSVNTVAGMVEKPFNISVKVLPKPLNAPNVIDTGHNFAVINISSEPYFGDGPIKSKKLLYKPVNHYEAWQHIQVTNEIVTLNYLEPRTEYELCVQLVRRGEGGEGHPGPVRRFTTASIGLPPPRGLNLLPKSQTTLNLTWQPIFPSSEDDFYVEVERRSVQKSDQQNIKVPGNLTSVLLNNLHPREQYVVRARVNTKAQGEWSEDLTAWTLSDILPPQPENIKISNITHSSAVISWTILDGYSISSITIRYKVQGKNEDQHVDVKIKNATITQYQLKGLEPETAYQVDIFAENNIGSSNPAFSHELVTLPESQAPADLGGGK

The target in one assay is T1, Recombinant human Angiopoietin-2 (R&D Systems Cat No 623-AN/CF) (human, UniProt O15123 19-496, limits assumed).
T1 construct: Bought reagent; also called Ang2; human Ang2
T1 sequence (looked up): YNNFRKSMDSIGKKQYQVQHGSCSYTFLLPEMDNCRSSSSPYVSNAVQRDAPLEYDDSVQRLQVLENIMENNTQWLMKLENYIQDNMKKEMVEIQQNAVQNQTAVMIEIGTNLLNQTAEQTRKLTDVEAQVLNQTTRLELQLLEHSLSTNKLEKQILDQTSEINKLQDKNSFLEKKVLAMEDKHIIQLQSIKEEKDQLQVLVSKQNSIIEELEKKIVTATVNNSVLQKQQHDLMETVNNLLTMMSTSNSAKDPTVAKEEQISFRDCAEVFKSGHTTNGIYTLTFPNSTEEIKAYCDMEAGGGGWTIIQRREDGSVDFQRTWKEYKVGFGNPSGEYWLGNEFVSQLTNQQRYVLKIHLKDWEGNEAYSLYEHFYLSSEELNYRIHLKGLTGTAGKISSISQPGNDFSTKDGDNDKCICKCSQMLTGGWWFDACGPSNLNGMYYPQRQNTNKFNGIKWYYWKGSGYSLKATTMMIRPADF
The assay can be described thus: phage ELISA: 10 ul monoclonal phage supernatant in 100 ul on 0.2 ug/ml coated Ang2, anti-M13-HRP, OD 450 nm. On the procedure:
In order to determine binding specificity to Ang2, the clones are tested in an ELISA binding assay setup, using the monoclonal phage pools. Phage binding to Ang2 (R&D Systems Cat No 623-AN/CF) is tested. Shortly, 0.2 ug/ml Ang2 is immobilized on Maxisorp ELISA plates (Nuns) and free binding sites are blocked using 4% Marvel skimmed milk in PBS. Next, 10 ul of supernatant from the monoclonal phage inductions of the different clones in 100 ul 2% Marvel. PBS are allowed to bind to the immobilized antigen. […] Binding specificity is determined based on OD values compared to controls having received an irrelevant phage or no phage.
(In general: In an ELISA, binding on a coated surface is turned into a signal by an enzyme label.)
Regarding B1, the binding result is reported as “binds”. With B2, the binding result was “binds”.

Another assay has as its target T2, recombinant human Tie2/Fc Chimera (R&D Systems Cat No 313-TI, Lot No BKC06) (human, UniProt Q02763 23-745).
T2 construct: Bought reagent; also called receptor; not shown: Fc portion of the bought chimera
The assay can be described thus: competition ELISA: 0.2 ug/ml Tie2/Fc pre-incubated with 10 ul periplasmic extract, then on coated Ang1 (0.75 ug/ml); bound Tie2/Fc detected with anti-human IgG-HRP; blocked ligand: Ang1. On the procedure:
Clones tested positive in the Tie2 binding assay are screened for their ability to block Ang1 binding to Tie2/Fc. For this, Nanobody-containing periplasmic extracts (P.E.) are used in an ELISA-based ligand competition setup. In short, 0.75 ug/ml human Ang1 (R&D Systems Cat No 923-AN/CF Lot No FHWO73091) is coated in 96 well Maxisorp microtiter plates (Nunc) and blocked with 4% Marvel skimmed milk in PBS. In parallel, 0.2 ug/ml Tie2/Fc is incubated with 10 ul of periplasmic extract P.E. containing nanobody of the different clones in 100 ul 2% Marvel/PBS. After 1 hour, the receptor-Nanobody pre-mixes are incubated 1 hour with the coated ligand. Bound Tie2/Fc is detected using HRP-conjugated goat anti-human IgG (Jackson Immunoresearch, Cat #109-035-098). Blocking activity is determined as loss of OD signal, as compared to wells where no P.E., or irrelevant P.E., has been added.
As to B3, the binding result is given as “binds”. Same read-out and setting: as for B4, the entry is “binds”; as for B5, “binds”; as for B6, “binds”.

With B7, the binding result is listed as “binds”. In the case of B8, the binding result is given as “binds”.

For another assay, the target named is T3, Recombinant human Angiopoietin-4 (R&D Systems Cat No 964-AN/CF) (human, UniProt Q9Y264 25-503, limits assumed).
T3 construct: Bought reagent; also called Ang4
T3 sequence (looked up): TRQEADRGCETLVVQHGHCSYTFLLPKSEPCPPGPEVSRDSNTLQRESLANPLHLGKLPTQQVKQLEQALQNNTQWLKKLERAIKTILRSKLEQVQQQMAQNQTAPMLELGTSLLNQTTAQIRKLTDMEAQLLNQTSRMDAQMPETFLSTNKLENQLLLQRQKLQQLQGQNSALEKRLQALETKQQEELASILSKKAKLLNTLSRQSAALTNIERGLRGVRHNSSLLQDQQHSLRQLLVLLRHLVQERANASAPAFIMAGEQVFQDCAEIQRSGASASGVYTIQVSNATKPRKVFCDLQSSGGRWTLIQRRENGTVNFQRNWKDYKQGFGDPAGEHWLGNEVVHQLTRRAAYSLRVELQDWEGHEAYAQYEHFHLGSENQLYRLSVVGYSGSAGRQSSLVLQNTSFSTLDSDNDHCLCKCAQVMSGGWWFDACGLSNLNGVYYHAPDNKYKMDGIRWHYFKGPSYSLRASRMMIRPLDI
The assay can be described thus: phage ELISA on coated Ang4: 10 ul monoclonal phage supernatant in 100 ul, anti-M13-HRP, OD 450 nm.
As for B9, the binding result is recorded as “binds”. Same read-out and setting: then B10, with “binds”; and B11, with “binds”.

Consider B12, for which the binding result is given as “binds”. Regarding B13, the binding result is reported as “binds”. Same read-out and setting: then B14, with “binds”; and B15, with “binds”; and B16, with “binds”. The same measure, in the same setting: then B17, with “binds”; and B18, with “binds”.
